Substrate: O=CCCC(=O)C(=O)O
Experiment: purified protein
Format: biochemical, Corynebacterium glutamicum
Conditions: 5 mM NAD+, 100 mM potassium phosphate, pH 7.5, 30 °C

B1: KsaD (Cg0535) (Corynebacterium glutamicum ATCC 13032) (protein)
chain: MITATALHGCSLIDGEWVAGKNGEITGFDPRTNASLNPSYSLANSAQLRAATTSAKRAFESYRLTTPEVRADFLDSIADNIDALSGEIVQRASLETGLGTTRLTGEVARTSNQLRLFAETVRSGQFHRVRIERGPRIDLRQRQVPLGPVAVFGASNFPVAFSTAGGDTASALAAGCPVVFKAHNAHPGTAELVGQAVRGAVEKHEFDAGVFNLVYGRGVEIGQELAADPNITAIGFTGSRQGGLALSQTAFSRPVPVPVFAEMSATNPVFVFPGALADLDASSSLAEAFTASVTGSSGQLCTKPGLVFIPRGVVGDAFVALVAAKFKETTGQTMLTQGIAQAWQRGVDNLAAQPSVKILAQGTPGDGENAPGPVVFESDVQALLNNVVLQEEIFGAASLVVRYDSPDQLHQVANSLEGQLTATIHASQDDFQEVSKLIPLLEDLAGRVLYGGWPTGVEVGHTVIHGGPYPATSNAQSTSVGTLAIERFMRPVSYQTFPAELLPDPVSEANKWAVPREIDR
notes: N-terminus MITATA after tag (from primer)
- Km: 870 µM

From PMC6475665, “Alone at last! – Heterologous expression of a single gene is sufficient for establishing the five-step Weimberg pathway in Corynebacterium glutamicum” (Metabolic Engineering Communications, 2019)
